Data on one molecule can be found in US11492376B2, “Toxoplasma gondii GRA8-derived recombinant peptides and composition for preventing or treating cancer comprising the same” (Industry—University Cooperation Foundation Hanyang …, priority 2019, dated 2022).

The test system of data set [1] is HCT116 cells. As to the kind of experiment: MitoTracker flow cytometry of mitochondrial mass in HCT116 cells. The format is cell-based, human. To be noted: 1 day, via SIRT3 and PKCα. The method, then:
FIGS. 4A, 4B, 4C, 4D and 4E show HCT116 cell death by rATRAM-GRA8-M/AS-induced mitochondrial activation [(A and B) HCT116 cells were incubated with WT rGRA8 or rATRAM-GRA8-M/AS and its mutants for indicated times, and then cell viability was measured with an MTT assay. […] The cells were stimulated with rATRAM-GRA8-M/AS for 1 day and subjected to enzymatic activity of OXPHOS V, and (C) MitoTracker fluorescence signals were assessed by flow cytometry. (D) A bar graph indicates a mitochondrial mass (MFI), and (E) the mtDNA content of BMDM was measured by quantitative real-time PCR. The mtDNA content was normalized by nuclear DNA. Significant differences were determined by comparison with control treatment (** P<0.01; *** P<0.001). Data represents five independent experiments with similar results].
In general terms: In flow cytometry, cells or beads pass a laser one at a time.

Data set [2] relates to BMDM. Description: MTT assay of cell viability, bone marrow-derived macrophages (BMDM). In kind it is cell-based, mouse. As to conditions: 20 μg/ml. The procedure: FIGS. 2A, 2B, 2C, 2D and 2E show the design and expression of an ATRAM-conjugated multifunctional GRA8 peptide (rATRAM-G8-M/AS)-based protein [(A) Subcellular fractionation of 293T cells was performed by expression of GST-GRA8 WT or incubation of WT rGRA8 with (1 μg/ml) BMDM and treatment with several Tat-GRA8 peptides for 6 hours (10 μM). Mitochondrial and cytosolic fractions were fractionated and analyzed for expression of GST by IB. The purity of the fractions was confirmed by blotting for VDAC (mitochondrial protein) and actin (cytosolic protein). (B) A mammalian GST-GRA8 construct was transfected into 293T cells for 12 hours with V5-ATP5A1 or Flag-SIRT3, and treated with several Tat-GRA8 peptides (10 μM) for 6 hours. The 293T cells were used for GST pulldown, followed by IB with αV5 or αFlag. WCL was used for IB with αGST, αV5, αFlag or αActin. […] (D) 6×His-rATRAM-GRA8-M/AS purified with bacteria and its mutants were analyzed by Coomassie blue staining (left) or αHis immunoblotting (IB; right). (E) BMDM was incubated with rATRAM-GRA8-M/AS and its mutant (20 μg/ml) for indicated times, and cell viability was then measured by an MMT assay. […]
As described in Non-Patent Document 1, the cell viability for a non-treated group was measured by an MTT assay. […] Using a UV/VIS spectrophotometer, each well of a plate was measured at 540 nm to measure relative cell viability.
A general note: Tetrazolium assays rely on reduction of a dye to a coloured formazan, in cell work by metabolically active cells.

A short description of data set [3]: Immunogenicity: specific IgG by ELISA in immunized mice. As to conditions: immunized BALB/C mice, OD 450 nm. The procedure:
Immunoblotting was performed with anti-PKCα, anti-ATP5A1, anti-SIRT3 or anti-actin. […] (B) The schematic diagram of a xenograft model treated with rVector (upper). HCT116-expressing ATP5A1 WT and mutant cells were subcutaneously injected into the flank of nude mice. […] Each group included 10 mice. […] (C) Humoral immune responses in BALB/C mice. The mice were immunized via each route (intravenous injection or intraperitoneal injection) every third day, and subjected to blood collection on day 40. […] The values are expressed as mean±standard deviation for absorbance (OD) at 450 nm. Each group included five mice. (D) Cytokine response for rATRAM-GRA8-M/AS in tumor-bearing mice. As described in the method section, HCT116 cells were subcutaneously injected into the flank of a BALB/c mouse. A serum cytokine level was measured on day 30 after administration. Each group included 10 mice.
Since immunogenicity is closely related with safety and efficacy, it is one of the critical factors for development of therapeutic proteins. Therefore, by monitoring the production of antibodies against rATRAM-GRA8-M/AS in immunized mice, the immunogenicity of rATRAM-GRA8-M/AS was investigated. After three consecutive injections of rATRAM-GRA8-M/AS, a level of IgG antibody was analyzed using enzyme-linked immunosorbent assay (ELISA).

Data set [4] can be described thus: Pharmacokinetics and drug distribution in HCT116 tumor-bearing mice (His immunoblotting of organs). The format is in vivo, BALB/c mouse. The procedure:
The […] were administered into the mouse by intraperitoneal injection once (left) or twice (right), and then the mouse was sacrificed on day 5. His expression was evaluated by immunoblotting (IB) in various organs from a mouse. The whole cell lysate was used for IB with anti-actin. Data represents four independent experiments with similar results. (B) The schematic diagram of an rGRA8 WT (upper)-treated xenograft model. […] The length and width of the tumors were measured using calipers, and a tumor volume was calculated every third day for 30 days. Individual tumor volumes from each mouse in each group were averaged and graphed over days after inoculation. Statistical significance was determined by two-way analysis of variance (ANOVA) with a Tukey's post-test; * P<0.05, *** P<0.001, compared with rVector. Each group included 10 mice. Data represents two independent experiments with similar results.
(In general: In western blotting, separated proteins are transferred to a membrane and probed.)

Setting [5] is: tumor-bearing mice, intraperitoneal injection.

B1: (GLAGLAGLLGLEGLLGLPLGLLEGLWLGLELEGN)2-GG-ATATTTTTTR-GG-YRFTVQTTQN (protein)
chain: GLAGLAGLLGLEGLLGLPLGLLEGLWLGLELEGNGLAGLAGLLGLEGLLGLPLGLLEGLWLGLELEGNGGATATTTTTTRGGYRFTVQTTQN
modifications: His tag; rATRAM-G8-M/AS
For the molecule B1, the mitochondrial mass entry in data set [1] was “enhanced”. Also, the “cytotoxicity in macrophages compared with vector control” value in data set [2] is recorded as “No significant cytotoxic differences”. Besides, the “level of specific IgG antibody” value in data set [3] was “negligible”. Besides, the cancer cell targetability entry in data set [4] (immunoblotting, FIG. 5) is reported as “excellent cancer cell targetability”. Further, in data set [4] (setting [5]), the disappearance from tumor result was “gradually disappeared by day 3” and the “time the tumor location was maintained” value was “up to 2 days”. The “location of protein among organs” value in data set [4] (tumor-bearing mice, intraperitoneal injection, His immunoblotting) is given as “located in tumor cells”.
